Experimental findings from publication doi:10.1101/2020.10.05.326918 (bioRxiv, 2020) are described below.

What all share (assay): cryo-EM structure
In one assay the target is T1, MED28 (Mus musculus (endogenous in CH12 cells), UniProt Q920D3 1-178).
T1 sequence (looked up): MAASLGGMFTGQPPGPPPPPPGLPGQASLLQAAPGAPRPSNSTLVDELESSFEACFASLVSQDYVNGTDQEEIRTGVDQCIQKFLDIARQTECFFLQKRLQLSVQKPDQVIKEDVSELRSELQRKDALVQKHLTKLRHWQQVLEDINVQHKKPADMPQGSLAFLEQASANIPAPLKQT

In another assay the target is T2, MED22 (Mus musculus (endogenous in CH12 cells), UniProt Q62276 1-200).
T2 sequence (looked up): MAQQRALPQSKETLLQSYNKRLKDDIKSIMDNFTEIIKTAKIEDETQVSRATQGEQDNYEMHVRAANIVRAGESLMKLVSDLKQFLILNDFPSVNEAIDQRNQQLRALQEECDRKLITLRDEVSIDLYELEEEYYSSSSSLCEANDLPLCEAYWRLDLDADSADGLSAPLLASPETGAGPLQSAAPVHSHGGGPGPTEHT

The target of the next assay is T3, MED30 (Mus musculus (endogenous in CH12 cells), UniProt Q9CQI9 1-178).
T3 sequence (looked up): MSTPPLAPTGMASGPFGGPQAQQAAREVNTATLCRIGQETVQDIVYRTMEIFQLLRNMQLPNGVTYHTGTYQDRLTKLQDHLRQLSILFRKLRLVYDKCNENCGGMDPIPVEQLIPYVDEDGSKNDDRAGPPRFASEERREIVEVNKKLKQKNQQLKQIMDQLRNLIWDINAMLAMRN

The target of another assay is T4, MED20 (Mus musculus (endogenous in CH12 cells), UniProt Q9R0X0 1-212).
T4 sequence (looked up): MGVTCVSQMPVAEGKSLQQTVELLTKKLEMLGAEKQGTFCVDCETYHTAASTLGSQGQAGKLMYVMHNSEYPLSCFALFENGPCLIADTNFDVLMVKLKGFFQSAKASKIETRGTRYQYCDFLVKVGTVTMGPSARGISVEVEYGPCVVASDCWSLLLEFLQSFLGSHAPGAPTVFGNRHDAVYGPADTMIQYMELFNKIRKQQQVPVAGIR

In another assay the target is T5, MED27 (Mus musculus (endogenous in CH12 cells), UniProt Q9DB40 1-311).
T5 sequence (looked up): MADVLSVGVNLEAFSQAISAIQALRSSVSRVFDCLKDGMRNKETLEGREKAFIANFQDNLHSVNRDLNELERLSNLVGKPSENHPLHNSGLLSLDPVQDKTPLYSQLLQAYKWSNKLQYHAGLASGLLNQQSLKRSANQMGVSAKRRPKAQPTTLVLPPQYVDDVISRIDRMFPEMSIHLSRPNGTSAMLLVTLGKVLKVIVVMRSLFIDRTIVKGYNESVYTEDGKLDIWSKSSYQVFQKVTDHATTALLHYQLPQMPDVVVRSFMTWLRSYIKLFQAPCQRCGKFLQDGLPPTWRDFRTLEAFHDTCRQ

The next assay addresses T6, MED17 (Mus musculus (endogenous in CH12 cells), UniProt Q8VCD5 1-649).
T6 sequence (looked up): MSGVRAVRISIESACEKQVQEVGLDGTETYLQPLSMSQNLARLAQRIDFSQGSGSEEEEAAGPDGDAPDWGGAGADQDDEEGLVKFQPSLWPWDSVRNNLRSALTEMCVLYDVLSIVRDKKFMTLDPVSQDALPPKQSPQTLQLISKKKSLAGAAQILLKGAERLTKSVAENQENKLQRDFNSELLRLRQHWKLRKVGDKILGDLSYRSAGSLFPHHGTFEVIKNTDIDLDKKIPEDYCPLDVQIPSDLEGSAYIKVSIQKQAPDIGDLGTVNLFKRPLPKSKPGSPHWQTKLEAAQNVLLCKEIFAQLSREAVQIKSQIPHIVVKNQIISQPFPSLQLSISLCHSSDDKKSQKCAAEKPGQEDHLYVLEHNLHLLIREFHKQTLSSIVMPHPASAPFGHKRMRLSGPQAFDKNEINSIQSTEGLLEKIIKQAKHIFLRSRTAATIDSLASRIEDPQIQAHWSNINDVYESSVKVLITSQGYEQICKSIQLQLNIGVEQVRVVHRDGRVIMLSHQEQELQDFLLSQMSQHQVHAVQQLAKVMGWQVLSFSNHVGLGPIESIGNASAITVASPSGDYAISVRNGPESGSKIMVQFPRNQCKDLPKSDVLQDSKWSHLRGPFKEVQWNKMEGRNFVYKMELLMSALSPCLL

Another assay deals with MED1 (Mus musculus (endogenous in CH12 cells), UniProt Q925J9 1-1575).
MED1, sequence (Q925J9 whole entry): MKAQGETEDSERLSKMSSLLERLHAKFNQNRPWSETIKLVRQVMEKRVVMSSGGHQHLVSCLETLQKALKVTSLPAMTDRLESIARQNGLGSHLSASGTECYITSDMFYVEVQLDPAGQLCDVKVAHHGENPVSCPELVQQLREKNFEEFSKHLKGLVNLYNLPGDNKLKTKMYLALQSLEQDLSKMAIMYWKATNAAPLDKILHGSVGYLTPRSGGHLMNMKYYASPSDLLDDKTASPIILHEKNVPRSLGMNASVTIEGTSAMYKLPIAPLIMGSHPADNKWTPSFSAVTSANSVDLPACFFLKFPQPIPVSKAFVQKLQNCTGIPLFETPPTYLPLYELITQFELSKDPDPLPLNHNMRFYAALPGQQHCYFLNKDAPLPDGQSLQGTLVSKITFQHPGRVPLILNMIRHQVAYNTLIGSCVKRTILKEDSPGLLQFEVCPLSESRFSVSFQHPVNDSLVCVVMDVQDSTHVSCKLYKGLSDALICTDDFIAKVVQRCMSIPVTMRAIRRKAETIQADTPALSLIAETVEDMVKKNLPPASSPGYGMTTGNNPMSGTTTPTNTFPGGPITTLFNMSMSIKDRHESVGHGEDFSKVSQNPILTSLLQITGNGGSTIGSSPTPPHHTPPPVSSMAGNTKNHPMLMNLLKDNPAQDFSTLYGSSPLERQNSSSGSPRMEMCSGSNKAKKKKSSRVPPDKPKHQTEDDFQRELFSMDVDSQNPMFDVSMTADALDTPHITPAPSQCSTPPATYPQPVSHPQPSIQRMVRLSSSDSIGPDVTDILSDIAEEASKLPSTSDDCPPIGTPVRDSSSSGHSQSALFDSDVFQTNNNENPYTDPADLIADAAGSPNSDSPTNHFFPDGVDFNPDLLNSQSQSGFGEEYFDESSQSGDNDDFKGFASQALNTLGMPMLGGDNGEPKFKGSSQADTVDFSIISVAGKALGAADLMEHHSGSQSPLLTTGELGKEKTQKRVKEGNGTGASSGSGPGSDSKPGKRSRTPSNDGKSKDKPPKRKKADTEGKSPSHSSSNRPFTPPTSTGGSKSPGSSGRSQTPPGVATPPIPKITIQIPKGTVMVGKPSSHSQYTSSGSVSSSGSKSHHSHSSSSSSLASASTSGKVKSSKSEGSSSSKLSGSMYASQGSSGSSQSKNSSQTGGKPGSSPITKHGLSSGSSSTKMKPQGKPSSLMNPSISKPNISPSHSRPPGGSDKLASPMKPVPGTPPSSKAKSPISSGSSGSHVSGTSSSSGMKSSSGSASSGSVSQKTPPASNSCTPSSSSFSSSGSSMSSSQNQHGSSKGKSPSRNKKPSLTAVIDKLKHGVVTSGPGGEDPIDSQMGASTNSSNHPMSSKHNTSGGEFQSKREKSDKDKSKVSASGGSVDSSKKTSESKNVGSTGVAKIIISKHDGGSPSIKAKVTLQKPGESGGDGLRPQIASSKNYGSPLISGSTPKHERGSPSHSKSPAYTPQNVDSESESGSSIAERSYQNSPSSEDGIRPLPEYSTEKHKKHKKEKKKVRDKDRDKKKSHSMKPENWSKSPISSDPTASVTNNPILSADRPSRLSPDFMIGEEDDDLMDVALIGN
Another assay concerns the target T7, MED4 (Mus musculus (endogenous in CH12 cells), UniProt Q9CQA5 1-270).
T7 sequence (looked up): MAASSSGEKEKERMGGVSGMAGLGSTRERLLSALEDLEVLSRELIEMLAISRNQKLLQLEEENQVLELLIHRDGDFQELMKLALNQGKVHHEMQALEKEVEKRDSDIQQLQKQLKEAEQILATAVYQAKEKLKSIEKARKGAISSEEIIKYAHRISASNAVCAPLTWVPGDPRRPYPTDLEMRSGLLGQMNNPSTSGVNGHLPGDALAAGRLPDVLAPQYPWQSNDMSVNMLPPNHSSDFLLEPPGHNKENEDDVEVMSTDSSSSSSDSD

A further assay deals with T8, MED7 (Mus musculus (endogenous in CH12 cells), UniProt Q9CZB6 1-233).
T8 sequence (looked up): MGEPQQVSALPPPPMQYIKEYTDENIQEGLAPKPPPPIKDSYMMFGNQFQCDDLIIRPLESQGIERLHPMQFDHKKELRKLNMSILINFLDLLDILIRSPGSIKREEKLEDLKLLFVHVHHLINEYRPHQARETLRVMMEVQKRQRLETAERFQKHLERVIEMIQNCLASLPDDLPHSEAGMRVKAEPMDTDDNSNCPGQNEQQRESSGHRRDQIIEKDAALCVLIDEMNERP

B1: MED11 (natural protein, Mus musculus (endogenous in CH12 cells), UniProt Q9D8C6 1-117, looked up)
chain: MATYSLANERLRALEDIEREIGAILQNAGTAILELSKEKTNERLLDRQAAAFTTSVQHVEAELSAQIRYLTQVATGQPHEGSSYSSRKDCQMALKRVDYARLKISDVARTCEQMLEN
With B1, the binding result with MED28, with MED22 and with MED30 was “binds” each time.

B2: MED18 (natural protein, Mus musculus (endogenous in CH12 cells), UniProt Q9CZ82 1-208, looked up)
chain: MEAPPVTMMPVTGGTINMMEYLLQGSVLDHSLESLIHRLRGLCDNMEPETFLDHEMVFLLKGQQASPFVLRARRSMDRAGAPWHLRYLGQPEMGDKNRHALVRNCVDIATSENLTDFLMEMGFRMDHEFVAKGHLFRKGIMKVVVYKIFRILVPGNTDSTEALSLSYLVELSVVAPAGQDMVSDDMRNFAEQLKPLVHLEKIDPKRLM
With B2, the binding result with MED20, with MED27 and with MED17 was “binds” each time.

B3: MED9 (natural protein, Mus musculus (endogenous in CH12 cells), UniProt Q8VCS6 1-142, looked up)
chain: MASSGVAGGRQAEDTLQPPPELLPESKPPPPPQPLPVAALPPPAAPRPQSPAGAKEENYSFLPLVHNVIKCMDKDSPDLHQDLNALKTKFQELRKLIGTMPGIHVSPEQQQQQLHSLREQVRTKNELLQKYKSLCMFEIPKD
As for B3, the binding result with MED1 and with MED4 was “binds” throughout.

B4: MED21 (natural protein, Mus musculus (endogenous in CH12 cells), UniProt Q9CQ39 1-144, looked up)
chain: MADRLTQLQDAVNSLADQFCNAIGVLQQCGPPASFSNIQTAINKDQPANPTEEYAQLFAALIARTAKDIDVLIDSLPSEESTAALQAASLYKLEEENHEAATCLEDVVYRGDMLLEKIQSALADIAQSQLKTRSVTHSHSLPDS
With B4, the binding result with MED7 is “binds”.
